Reference: PMC7549790

Target: Toll-like receptor 2 (mouse (endogenous in RAW264.7)) (UniProt Q9QUN7)
UniProt Q9QUN7, sequence (Q9QUN7 25-784): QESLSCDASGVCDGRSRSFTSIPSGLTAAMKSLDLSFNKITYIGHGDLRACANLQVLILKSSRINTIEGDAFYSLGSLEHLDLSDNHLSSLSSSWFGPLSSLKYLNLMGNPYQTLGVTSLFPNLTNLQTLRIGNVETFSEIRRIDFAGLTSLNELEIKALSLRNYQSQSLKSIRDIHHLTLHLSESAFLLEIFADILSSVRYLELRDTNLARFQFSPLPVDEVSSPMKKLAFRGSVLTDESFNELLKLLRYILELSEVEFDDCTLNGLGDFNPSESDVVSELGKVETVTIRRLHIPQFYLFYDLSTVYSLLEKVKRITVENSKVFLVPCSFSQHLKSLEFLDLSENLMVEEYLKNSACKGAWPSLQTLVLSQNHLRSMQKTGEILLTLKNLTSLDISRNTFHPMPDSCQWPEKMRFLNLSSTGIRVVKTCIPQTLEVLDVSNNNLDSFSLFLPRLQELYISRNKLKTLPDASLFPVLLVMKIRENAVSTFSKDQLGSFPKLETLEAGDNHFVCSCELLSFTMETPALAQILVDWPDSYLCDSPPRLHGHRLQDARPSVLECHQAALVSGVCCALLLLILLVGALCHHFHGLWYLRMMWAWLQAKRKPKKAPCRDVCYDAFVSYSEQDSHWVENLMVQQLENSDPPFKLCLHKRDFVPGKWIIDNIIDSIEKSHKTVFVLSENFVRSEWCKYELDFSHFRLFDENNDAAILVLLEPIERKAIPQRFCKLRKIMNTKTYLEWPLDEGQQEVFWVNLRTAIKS

Question: Which IL-10 secreted by RAW264.7 macrophages stimulated with 5~20 μg/ml rCsHscB for 12 h or 24 h (ELISA); highest at 20 μg/ml for 24 h (fold over DMEM-stimulated cells) does the source give for “recombinant Clonorchis sinensis molecular chaperone HscB (natural protein)” here?
Answer: The IL-10 secreted by RAW264.7 macrophages stimulated with 5~20 μg/ml rCsHscB for 12 h or 24 h (ELISA); highest at 20 μg/ml for 24 h (fold over DMEM-stimulated cells) was greater than 10.
